Experimental data from patent US20090123940A1 (Johns Hopkins, published 2009).

What was measured:
[1] = target: T1, EC1 domain of GluR6 (display construct) (UniProt P42260 32-561, limits assumed); experiment: co-clustering on transfected cells
T1 construct: domain: EC1 domain
T1 sequence (looked up): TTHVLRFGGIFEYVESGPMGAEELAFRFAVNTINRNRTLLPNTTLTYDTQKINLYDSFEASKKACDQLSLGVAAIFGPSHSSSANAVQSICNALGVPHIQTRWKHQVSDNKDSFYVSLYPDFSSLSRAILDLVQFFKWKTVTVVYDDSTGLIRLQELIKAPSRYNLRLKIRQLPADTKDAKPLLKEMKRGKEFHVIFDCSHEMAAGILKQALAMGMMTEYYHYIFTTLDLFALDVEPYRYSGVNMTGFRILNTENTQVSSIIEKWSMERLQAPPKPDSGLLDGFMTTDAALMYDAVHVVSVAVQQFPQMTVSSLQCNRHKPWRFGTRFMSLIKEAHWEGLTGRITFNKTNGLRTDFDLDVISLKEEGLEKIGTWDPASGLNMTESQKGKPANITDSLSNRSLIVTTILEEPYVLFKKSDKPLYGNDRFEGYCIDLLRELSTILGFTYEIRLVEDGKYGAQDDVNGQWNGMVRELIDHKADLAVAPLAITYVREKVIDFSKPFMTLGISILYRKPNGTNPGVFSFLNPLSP

[2] = target: T2, HA-GluR6 (GluR6 with an N-terminal HA tag) (UniProt P42260 32-908); experiment: co-IP from co-transfected HEK 293T cells
T2 construct: mature; also called wildtype HA GluR6

[3] = target: metabotropic glutamate receptor mGluR5 (UniProt P31424 21-1203, limits assumed); experiment: biochemical assays, not described further
Chain of metabotropic glutamate receptor mGluR5 (P31424 21-1203 limits assumed): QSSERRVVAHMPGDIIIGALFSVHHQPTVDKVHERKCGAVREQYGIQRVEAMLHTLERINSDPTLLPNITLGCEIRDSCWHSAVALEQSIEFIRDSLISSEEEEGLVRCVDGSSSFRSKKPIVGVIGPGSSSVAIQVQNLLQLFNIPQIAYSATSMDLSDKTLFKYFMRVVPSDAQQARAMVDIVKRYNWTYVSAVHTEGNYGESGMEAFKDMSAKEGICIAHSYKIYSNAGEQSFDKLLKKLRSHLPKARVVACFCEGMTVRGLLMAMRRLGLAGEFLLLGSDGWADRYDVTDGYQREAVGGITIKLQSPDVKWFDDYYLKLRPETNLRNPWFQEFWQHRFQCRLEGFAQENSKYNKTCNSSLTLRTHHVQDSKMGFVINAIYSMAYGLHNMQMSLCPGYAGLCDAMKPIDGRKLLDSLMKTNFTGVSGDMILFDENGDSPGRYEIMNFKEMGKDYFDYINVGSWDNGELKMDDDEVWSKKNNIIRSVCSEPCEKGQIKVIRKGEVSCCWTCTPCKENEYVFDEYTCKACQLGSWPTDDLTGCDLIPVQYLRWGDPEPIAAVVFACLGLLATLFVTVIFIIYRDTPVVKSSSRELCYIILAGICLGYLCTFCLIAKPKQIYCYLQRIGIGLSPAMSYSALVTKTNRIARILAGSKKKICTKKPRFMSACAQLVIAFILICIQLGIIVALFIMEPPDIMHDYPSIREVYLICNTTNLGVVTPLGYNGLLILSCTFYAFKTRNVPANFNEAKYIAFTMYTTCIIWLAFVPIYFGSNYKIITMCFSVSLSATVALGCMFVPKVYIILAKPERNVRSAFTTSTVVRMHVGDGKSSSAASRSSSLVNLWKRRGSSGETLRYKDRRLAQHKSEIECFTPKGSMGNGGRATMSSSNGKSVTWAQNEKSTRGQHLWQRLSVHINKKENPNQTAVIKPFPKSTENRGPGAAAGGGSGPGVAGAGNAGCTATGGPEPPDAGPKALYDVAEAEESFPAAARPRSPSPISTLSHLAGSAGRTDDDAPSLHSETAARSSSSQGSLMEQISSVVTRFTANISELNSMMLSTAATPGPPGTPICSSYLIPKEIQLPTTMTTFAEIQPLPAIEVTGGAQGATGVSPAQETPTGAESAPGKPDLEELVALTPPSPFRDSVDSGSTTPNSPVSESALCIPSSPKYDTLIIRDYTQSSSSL

[4] = target: T3, NMDA receptor subunit NR1 (UniProt P35439 19-938); experiment: co-clustering in co-transfected 293 cells, immunostaining
T3 construct: whole, on cells

[5] = target: T4, NMDA receptor subunits NR1 and NR2A (UniProt P35439 19-938; Q00959 23-1464); experiment: as above
T4 construct: whole, on cells; Co-expressed in 293 cells; also called NR1/2A

[6] = target: T5, neuronal glutamate transporter EAAC1 (UniProt P51907 1-523); experiment: as above
T5 construct: whole, on cells
T5 sequence (looked up): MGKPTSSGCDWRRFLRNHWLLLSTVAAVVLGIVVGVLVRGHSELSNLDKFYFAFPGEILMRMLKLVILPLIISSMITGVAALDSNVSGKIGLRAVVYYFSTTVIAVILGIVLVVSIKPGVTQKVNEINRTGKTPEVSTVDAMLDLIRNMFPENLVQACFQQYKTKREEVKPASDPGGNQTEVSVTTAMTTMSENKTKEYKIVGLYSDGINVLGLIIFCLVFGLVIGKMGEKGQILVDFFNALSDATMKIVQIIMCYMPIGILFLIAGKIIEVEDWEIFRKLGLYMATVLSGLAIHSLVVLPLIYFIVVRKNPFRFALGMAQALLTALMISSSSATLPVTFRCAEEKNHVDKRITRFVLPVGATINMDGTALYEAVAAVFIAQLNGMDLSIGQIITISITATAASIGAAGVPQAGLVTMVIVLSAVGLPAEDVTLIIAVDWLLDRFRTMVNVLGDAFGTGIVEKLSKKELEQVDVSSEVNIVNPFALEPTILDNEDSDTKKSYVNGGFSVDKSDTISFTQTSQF

[7] = target: T6, kainate receptor subunit GluR6 (UniProt P42260 32-908, limits assumed); experiment: as above
T6 construct: whole, on cells

Measured: binding result

B1: Neuronal activity regulated pentraxin (Narp) (ligand)
chain: QAQDNPIPGSRFVCTALPPEAARAGCPLPAMPMQGGALSPEEELRAAVLHWRETVVQQKETLGAQREAIRELTSKLARCEGLAGGKARGTGATGKDTMGDLPRDPGHVVEQLSRSLQTLKDRLESLELQLHTNASNAGLPSDFREVLQRRLGELERQLLRKVAELEDEKSLLHNETSAHRQKTENTLNALLQRVTELERGNSAFKSPDAFKVSLPLRTNYLYGKIKKTLPELYAFTICLWLRSSASPGIGTPFSYAVPGQANEIVLIEWGNNPIELLINDKVAQLPLFVSDGKWHHICITWTTRDGMWEAFQDGEKLGTGENLAPWHPIKPGGVLILGQEQDTVGGRFDATQAFVGELSQFNIWDRVLRAQEIINIANCSTNMPGNIIPWVDNNVDVFGGASKWPVETCEERLLDL
notes: Secreted, glycosylated, disulfide-linked multimer (>220 kDa on non-reducing gels); The signal peptide is called putative; also called neuronal pentraxin 2; untagged Narp
no binding: [1] | [2] | [3] | [4] | [5] | [6] | [7]
